The assay concerns OVA-specific CTL responses. Kind of assay: Relative CTL/cytokine/tetramer responses of mice immunized with OVA. Type of assay: in vivo, C57131/6 mice. Here is the method:
Female C57131/6 mice (n=10 per group) with a body weight of about 18-20 g were used in the study. They were immunized via intramuscular (IM) injection into the left tibialis anterior muscle with a total volume of 50 μl on study days 0, 14 and 21.
A dose of the composition comprised, in various combinations, one or more of the following components: • Buffer: NaH2PO4.2H20 (229.32 mg/L), NaCl (1168.00 mg/L) and Na2HPO4 (1144.00 mg/L), dissolved in WFI and sterile filtered with a 0.1 μm filter. • Ovalbumin (OVA—Antigen): 10 μg • CpG ODN: 10 μg • Cholesterol: 1 μg • Quil A: 1 μg • DDA: 0.5 μg • Carbopol: 0.0375% • R1005: 50 μg Vaccine Preparation
Buffer was placed in a 50 ml flask with stir bar and stirred at a constant speed throughout all following steps. The components were added in the following order: Antigen (OVA); CPG ODN; Quil A; cholesterol (drop wise); DDA (drop wise); Carbopol®; and Bay R1005®. The composition was stirred at room temperature (approximately 25° C.) for a minimum of 30 minutes while protected from light by covering with foil. The solution was forced through a 25G needle into a syringe to break any large floating particles to obtain a uniform (cloudy) suspension and transferred to sterile glass vials for storage.
The following samples were collected: • Plasma: 4 weeks after the prime vaccination (1 week after second booster vaccination) • Cytotoxic T lymphocyte (CTL) (6 weeks after the prime vaccination (3 weeks after second booster vaccination) • Cytokine secretion in supernatant (4 weeks after the prime vaccination • 24-hour supernatant (IL-2, IL-4, IL-10, TNF • 72-hour supernatant (IFN-g • Tetramer (4 weeks after the prime vaccination • Cytokine producing T cells (6 weeks after the prime vaccination
The results are provided as a relative score that for each adjuvant showing the effect of the adjuvant. The endpoints are a relative scale based on the sum of the individual Cytotoxic T—Lymphocyte responses.

B1: OVA: Ovalbumin antigen, 10 μg, without adjuvant (protein, UniProt P01012 2-386, looked up)
Ovalbumin: GSIGAASMEFCFDVFKELKVHHANENIFYCPIAIMSALAMVYLGAKDSTRTQINKVVRFDKLPGFGDSIEAQCGTSVNVHSSLRDILNQITKPNDVYSFSLASRLYAEERYPILPEYLQCVKELYRGGLEPINFQTAADQARELINSWVESQTNGIIRNVLQPSSVDSQTAMVLVNAIVFKGLWEKAFKDEDTQAMPFRVTEQESKPVQMMYQIGLFRVASMASEKMKILELPFASGTMSMLVLLPDEVSGLEQLESIINFEKLTEWTSSNVMEERKIKVYLPRMKMEEKYNLTSVLMAMGITDVFSSSANLSGISSAESLKISQAVHAAHAEINEAGREVVGSAEAGVDAASVSEEFRADHPFLFCIKHIATNAVLFFGRCVSP
Consider B1, for which the “Relative CTL Responses: Tetramer” value (relative score, 4 weeks after the prime vaccination) stood at 1. Besides, the “Relative CTL Responses: CTL” value (relative score, 6 weeks after the prime vaccination) came out at 1. In addition, the “Relative CTL Responses: IL-2” value (relative score, 24-hour supernatant) was 1. Besides, the “Relative CTL Responses: IFN-g” value (relative score, 72-hour supernatant) amounted to 1. For the same molecule, for the setting “sum of the individual relative scores”, the “Relative CTL Responses: Total” value was found to be 4.

For the origin of these results see US10238736B2, “Adjuvant compositions” (priority 2008, dated 2019).
